What was measured:
[1] = target: T1, Human DLL3-ECD (recombinant extracellular domain of human DLL3, Examples 11, 17 and 19) (human, UniProt Q9NYJ7 27-466, biotinylated at the Avi-tag where immobilised (Examples 11 and 19)); assay: SPR (ProteOn), biotinylated human DLL3-ECD on chip, DARPin conjugate as analyte, 1:1 Langmuir fit (same values as Table 14)
T1 construct: also called hDLL3-ECD; human ECD; not shown: Avi-tag and Fc knob into hole (order depends on the format)
T1 sequence: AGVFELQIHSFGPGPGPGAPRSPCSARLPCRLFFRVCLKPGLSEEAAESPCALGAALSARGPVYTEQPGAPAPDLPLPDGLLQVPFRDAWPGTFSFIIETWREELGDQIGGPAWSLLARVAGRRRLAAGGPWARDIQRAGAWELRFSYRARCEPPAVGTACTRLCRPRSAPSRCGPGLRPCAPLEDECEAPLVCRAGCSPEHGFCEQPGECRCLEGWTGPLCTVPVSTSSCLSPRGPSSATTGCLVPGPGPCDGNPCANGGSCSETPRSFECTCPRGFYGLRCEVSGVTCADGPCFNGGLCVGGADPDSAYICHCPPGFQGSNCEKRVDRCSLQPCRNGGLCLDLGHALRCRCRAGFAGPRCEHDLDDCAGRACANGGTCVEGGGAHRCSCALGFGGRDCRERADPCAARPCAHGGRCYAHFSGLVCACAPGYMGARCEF
Description: (§1) The data were generated using BioRad ProteOn instrument in SPR running buffer (PBS, pH 7.4 containing 0.005% Tween 20©). […] The chip was coated with biotinylated target to reach a signal intensity of 1516 RU (human ECD), 257 RU (human NTD), 1500 RU (cyno ECD) and 228 RU (dog NTD). […] Each injection was followed by a regeneration step with 16 mM H₃PO₄ for 18 s. […] The obtained SPR traces were used to determine on-rate and off-rate interaction parameters.

[2] = target: T2, Dog DLL3-NTD (truncated dog DLL3, N-Terminal Domain, residues 27-189, C-terminal 6xHis and Avi-tag) (dog, UniProt A0A8I3MXZ5 27-188, biotinylated at the Avi-tag); assay: SPR (ProteOn), biotinylated dog DLL3-NTD on chip, DARPin conjugate as analyte, 1:1 Langmuir fit
T2 construct: also called dog NTD; not shown: C-terminal 6xHis and Avi-tag
T2 sequence: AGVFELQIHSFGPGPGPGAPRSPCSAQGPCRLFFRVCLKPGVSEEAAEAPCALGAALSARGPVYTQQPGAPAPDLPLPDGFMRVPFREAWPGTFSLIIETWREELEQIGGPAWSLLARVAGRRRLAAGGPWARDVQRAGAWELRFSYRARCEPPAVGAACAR
Description: as §1

human serum albumin = target: T3, human serum albumin (human, UniProt P02768 25-609); assay: SPR (ProteOn), HSA on chip, DARPin conjugate as analyte, 1:1 Langmuir fit
T3 construct: also called HSA
Description: (§2) SPR multi-trace analyses were performed similarly as described in previous Examples.
(§3) All analytes (3-fold dilution ranging from 600-7.41 nM) were injected in succession for 240 s and dissociation was recorded for 600 s using a constant flow of 25 μl/min (HSA) or 100 μl/min (MSA) (25 μl/min).

[3] = target: T4, Cyno DLL3-ECD (extracellular domain of cynomolgus macaque DLL3, residues 27 to 466, Avi-tag, 3C site, Fc knob … (cynomolgus macaque, UniProt A0A2K5WSR1 27-464, biotinylated at the Avi-tag (Example 11))); assay: SPR (ProteOn), biotinylated cyno DLL3-ECD on chip, DARPin conjugate as analyte, 1:1 Langmuir fit
T4 construct: range 27-466; also called cyno ECD; cynomolgus monkey DLL3; not shown: Avi-tag, 3C protease recognition site and Fc knob into hole
T4 sequence: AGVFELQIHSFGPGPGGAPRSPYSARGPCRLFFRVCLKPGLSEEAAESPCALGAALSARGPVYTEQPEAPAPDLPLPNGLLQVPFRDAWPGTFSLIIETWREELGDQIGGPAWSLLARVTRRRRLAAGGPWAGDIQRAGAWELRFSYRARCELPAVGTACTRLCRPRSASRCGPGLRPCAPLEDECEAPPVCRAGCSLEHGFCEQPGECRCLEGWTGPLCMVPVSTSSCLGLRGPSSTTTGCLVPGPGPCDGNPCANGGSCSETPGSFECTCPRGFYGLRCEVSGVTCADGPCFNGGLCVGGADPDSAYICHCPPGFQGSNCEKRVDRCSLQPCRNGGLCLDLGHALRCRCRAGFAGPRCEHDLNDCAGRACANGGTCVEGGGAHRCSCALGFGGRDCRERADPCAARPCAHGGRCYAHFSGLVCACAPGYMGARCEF
Description: as §1

[4] = target: T1, Human DLL3-ECD (recombinant …); assay: SPR (ProteOn), biotinylated human DLL3-ECD on chip, DARPin conjugate as analyte, 1:1 Langmuir fit
Description: as §1

[5] = target: T5, Human DLL3-NTD (truncated human DLL3, N-Terminal Domain, residues 27-189, C-terminal 6xHis and Avi-tag) (human, UniProt Q9NYJ7 27-189); assay: SPR (ProteOn), biotinylated human DLL3-NTD on chip, DARPin conjugate as analyte, 1:1 Langmuir fit
T5 construct: also called hDLL3-NTD; human NTD; not shown: C-terminal 6xHis and Avi-tag
T5 sequence: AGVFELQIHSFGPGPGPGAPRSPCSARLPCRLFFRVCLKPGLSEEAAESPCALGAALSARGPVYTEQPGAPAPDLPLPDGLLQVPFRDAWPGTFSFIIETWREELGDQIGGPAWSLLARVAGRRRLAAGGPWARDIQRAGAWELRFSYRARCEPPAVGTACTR
Description: as §1

mouse serum albumin = target: T6, mouse serum albumin (mouse, UniProt P07724 25-608); assay: SPR (ProteOn), MSA on chip, DARPin conjugate as analyte, 1:1 Langmuir fit
T6 construct: also called MSA
Description: as §2, §3

T6 sequence (P07724 25-608 limits assumed): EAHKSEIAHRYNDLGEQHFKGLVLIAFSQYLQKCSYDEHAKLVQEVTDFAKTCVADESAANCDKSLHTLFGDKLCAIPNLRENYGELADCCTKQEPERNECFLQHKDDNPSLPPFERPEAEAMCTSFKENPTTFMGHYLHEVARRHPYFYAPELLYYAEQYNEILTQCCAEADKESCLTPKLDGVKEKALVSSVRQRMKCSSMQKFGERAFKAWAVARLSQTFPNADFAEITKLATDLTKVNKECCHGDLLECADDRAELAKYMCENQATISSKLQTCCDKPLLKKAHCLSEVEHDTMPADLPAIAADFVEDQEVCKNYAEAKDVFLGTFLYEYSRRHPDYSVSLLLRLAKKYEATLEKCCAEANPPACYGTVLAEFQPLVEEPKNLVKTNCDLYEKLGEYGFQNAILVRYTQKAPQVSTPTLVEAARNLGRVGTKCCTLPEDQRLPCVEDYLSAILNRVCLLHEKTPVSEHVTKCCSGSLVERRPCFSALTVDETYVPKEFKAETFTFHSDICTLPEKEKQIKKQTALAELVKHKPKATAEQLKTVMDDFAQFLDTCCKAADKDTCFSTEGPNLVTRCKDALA

B1: MAM279-DOTAM (GS-MAM279-tag, SEQ ID NO: 15, conjugated to the chelator DOTAM) (designed binder)
chain: GSDLGKKLLEAARAGQDDEVRELLKAGADVNAKDYFSHTPLHLAARNGHLKIVEVLLKAGADVNAKDFAGKTPLHLAADAGHLEIVEVLLKAGADVNAQDIFGKTPADIAADAGHEDIAEVLQKAAGSPTPTPTTPTPTPTTPTPTPTGSDLGKKLLAAAAQGQDDEVRELLKAGANVNAKDLFGYTPLHLAAWRGHLEIVEVLLKAGADVNAKDAAGETPLHLAAWFGHLEIVEVLLKAGADVNAQDLQGKTPADLAAKEGHEDIAEVLQKAAGSGSC
notes: also called DOTAM-conjugated MAM279; MAM279 conjugate
- Kd [1]: 0.243 nM
- koff [1]: 1.64e-05 s⁻¹
- kon [1]: 67400 M⁻¹ s⁻¹
- Kd [2]: 1.46 nM
- koff [2]: 4.86e-05 s⁻¹
- kon [2]: 33400 M⁻¹ s⁻¹
- Kd (human serum albumin): 98.2 nM
- koff (human serum albumin): 0.021 s⁻¹
- kon (human serum albumin): 213000 M⁻¹ s⁻¹
- Kd [3]: 34.6 nM
- koff [3]: 0.00125 s⁻¹
- kon [3]: 36000 M⁻¹ s⁻¹
- Kd [4]: 0.243 nM
- koff [4]: 1.64e-05 s⁻¹
- kon [4]: 67400 M⁻¹ s⁻¹
- Kd [5]: 0.394 nM
- koff [5]: 1.99e-05 s⁻¹
- kon [5]: 50400 M⁻¹ s⁻¹
- Kd (mouse serum albumin): 274 nM
- koff (mouse serum albumin): 0.0425 s⁻¹
- kon (mouse serum albumin): 155000 M⁻¹ s⁻¹

From patent US20250332297A1, “DLL3-SPECIFIC BINDING CONSTRUCTS AND THEIR USE IN RADIOTHERAPY” (MOLECULAR PARTNERS AG, priority 2024, published 2025)
